Read-outs that look alike come from different tables or passages of the source.
What was measured:
Assay in all cases: split reporter
Yos9p [1] = target: T1, Yos9p (S. cerevisiae, UniProt Q99220 22-542)
T1 sequence: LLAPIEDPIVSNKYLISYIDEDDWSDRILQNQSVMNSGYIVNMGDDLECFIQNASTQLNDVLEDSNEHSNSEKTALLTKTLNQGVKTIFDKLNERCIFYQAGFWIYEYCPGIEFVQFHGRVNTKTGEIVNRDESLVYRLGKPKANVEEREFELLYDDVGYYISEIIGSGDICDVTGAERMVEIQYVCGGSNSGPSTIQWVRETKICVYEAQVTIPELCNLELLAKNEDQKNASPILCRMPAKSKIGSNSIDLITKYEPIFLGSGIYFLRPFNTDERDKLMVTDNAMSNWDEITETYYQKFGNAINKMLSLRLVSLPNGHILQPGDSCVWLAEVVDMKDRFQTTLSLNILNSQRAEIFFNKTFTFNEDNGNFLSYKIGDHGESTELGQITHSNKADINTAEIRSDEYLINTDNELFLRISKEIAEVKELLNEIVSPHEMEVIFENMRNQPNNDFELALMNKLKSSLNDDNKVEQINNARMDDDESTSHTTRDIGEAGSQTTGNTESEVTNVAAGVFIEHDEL

Cpr5p [2] = target: T2, Cpr5p (S. cerevisiae, UniProt P35176 23-225)
Mpd1p = target: T3, Mpd1p (S. cerevisiae, UniProt Q12404 22-318)
T3 sequence: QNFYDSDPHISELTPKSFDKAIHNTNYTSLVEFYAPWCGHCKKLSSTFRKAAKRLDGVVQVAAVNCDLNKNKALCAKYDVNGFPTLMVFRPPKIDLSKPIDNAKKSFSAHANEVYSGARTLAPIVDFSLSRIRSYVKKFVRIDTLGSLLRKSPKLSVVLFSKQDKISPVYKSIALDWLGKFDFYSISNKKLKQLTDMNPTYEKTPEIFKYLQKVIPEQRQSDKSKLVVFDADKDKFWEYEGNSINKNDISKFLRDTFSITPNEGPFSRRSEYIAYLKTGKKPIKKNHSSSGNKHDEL

Yos9p [3] = target: T1, Yos9p; remark: listed apart in the source
Pdi1p = target: T4, Pdi1p (S. cerevisiae, UniProt P17967 29-522)
T4 sequence: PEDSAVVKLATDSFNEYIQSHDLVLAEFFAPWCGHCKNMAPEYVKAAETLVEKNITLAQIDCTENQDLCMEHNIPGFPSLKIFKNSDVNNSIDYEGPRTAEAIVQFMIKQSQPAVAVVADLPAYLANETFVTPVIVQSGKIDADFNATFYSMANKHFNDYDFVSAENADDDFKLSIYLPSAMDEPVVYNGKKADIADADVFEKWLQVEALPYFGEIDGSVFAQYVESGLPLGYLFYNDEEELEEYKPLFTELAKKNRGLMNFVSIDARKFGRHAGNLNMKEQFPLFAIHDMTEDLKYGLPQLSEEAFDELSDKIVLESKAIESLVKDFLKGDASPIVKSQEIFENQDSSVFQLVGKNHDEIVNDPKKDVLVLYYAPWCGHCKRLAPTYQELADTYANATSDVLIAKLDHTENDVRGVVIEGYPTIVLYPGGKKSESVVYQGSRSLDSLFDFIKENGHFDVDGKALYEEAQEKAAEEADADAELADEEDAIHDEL

Cpr5p [4] = target: T2, Cpr5p; remark: listed apart in the source

T2 sequence (P35176 23-225): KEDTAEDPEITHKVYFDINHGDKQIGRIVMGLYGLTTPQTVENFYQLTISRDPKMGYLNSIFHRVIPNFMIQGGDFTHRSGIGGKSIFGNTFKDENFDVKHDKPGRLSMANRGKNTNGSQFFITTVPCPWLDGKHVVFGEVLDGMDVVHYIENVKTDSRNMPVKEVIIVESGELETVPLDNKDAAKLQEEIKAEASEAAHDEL

normalized interacting score (Yos9p [1]): 16%
normalized interacting score (Cpr5p [2]): 22%
normalized interacting score (Mpd1p): 21%
normalized interacting score (Yos9p [3]): 64%
normalized interacting score (Pdi1p): 23%
normalized interacting score (Cpr5p [4]): 59%
B1: Kre5p (natural protein)
chain: WTYSLRYGIPESAQVWSILVHLLGDVDNQLLTNLYPLVTGLDDEIDIQENLVALTSNVLRERYDKEDVADLLELYASLYPMGMIQHDISSNAEQDDANSSYFVLNGNRYEKPDDVFYLKSKDLTIQQKVPDVDVIQPYDVVIGTNSEAPILILYGCPTVIDSDFEEFNRNLFMEAMNGEGKFRFIWRSTCSLDGKSVEYPLTHPLEITLQNGSRMSSIPQLKKILYTVPKEILVGADNDDQLHDLEPEELRELDLRVTSLISEFYQYKKDITATLNFTKSIVNNFPLISKQLIKVSSVNKDIITSNEELNSKGFDYNMLGLYINGQNWKITSLTPYNLLTALKTEYQSLLKITNLLQELEPSKCILDSKFLLNKFSQFSLGKLQNLQPIKMDLHTIPGFSESVIYFNDIESDPQYDELVNSVQAFFDKSKFGELPEIKQNWSEIIFVIDFARLEDSEVKEALGGLVRAVNVVSQGYPQRVGLLPFSSDSDKSVVNKIYELKNSTDNLTELKSFLETMLLADGLSANAKHSKHIPVPDVFHLLDELQIDETSIIINGEIYPFRKNAWNYLIAKVIKKDTEFIRKELSNSSPKNKQISVRDLLHYKSANLRHNKYTPNYFADSVYSSVNNTALESVCSERIGYYTKNEEYNLLHTITLVDDFGSIHALKRLRNLLHTSFVGVRIRIIHVGDISDIWYQLRGSLSQKDPIGSINTFIDALKLKKVKSHTYKKSGLNQLGLHKWLPDIPLFELQKGSFIALNGRFIHLDQNEVPETEHFEAIIKREALRTIDSVFALDLLFPGFSQEIINPDLIEMISSILTRLFYQGTHIYNNGIDYTTESSLPRMDLSEFFRPNNLTMFEDGKSASIDLLLILDPLEERTQMILSLVEQFRPLKFVNIQVILMPTLELNIVPIRRIYVDDADIVKSITSEDSRSDPEVDIEMDVPNSFIVDNNYRIKKLLIELHSFSSKTVLSTGNIDGMGGVCLALVDSAGNIIDKTTTMKTFGYGQFHTDKFLKGCYIKSCDSRYTVQSFSTDGHPDFIPSDSLDILSYNPQKIAVKISEEPTHEEEYEEGRNNDTIINIFTILESGPDEEERYMQMILSILSKCPETQKVNFFILDQPFISDTLRKSCEYINSSDEMRGNVIFLNYEWPQWLRPQRFSSRRRDVSRFLFLDVLLPQNISKVLYMSPTEVPLDPFDIFQFQGLKRAPLGLFRMSGDGYWKEGYWEKMLRENNLEFYSTEPAFLVNLERFRELDAGDKYRIHYQRISTDAMSLVNIGQDLVNNLQLEVPIRFLKGSYKKKLVINDECVSEWKKKINKFASSPGDEDVPGESVSSKYQDSDNAAPLHDEL
